These are literature values, as cited in PMC9739371, “Deciphering the Binding of the Nuclear Localization Sequence of Myc Protein to the Nuclear Carrier Importin α3” (International Journal of Molecular Sciences, 2022).

This series concerns the target NLS-Myc (GFP fusion) NLS (Homo sapiens) (UniProt P01106).

NLS-Myc (GFP fusion) NLS (Homo sapiens), sequence (P01106 whole entry, looked up, the tested form may be a part): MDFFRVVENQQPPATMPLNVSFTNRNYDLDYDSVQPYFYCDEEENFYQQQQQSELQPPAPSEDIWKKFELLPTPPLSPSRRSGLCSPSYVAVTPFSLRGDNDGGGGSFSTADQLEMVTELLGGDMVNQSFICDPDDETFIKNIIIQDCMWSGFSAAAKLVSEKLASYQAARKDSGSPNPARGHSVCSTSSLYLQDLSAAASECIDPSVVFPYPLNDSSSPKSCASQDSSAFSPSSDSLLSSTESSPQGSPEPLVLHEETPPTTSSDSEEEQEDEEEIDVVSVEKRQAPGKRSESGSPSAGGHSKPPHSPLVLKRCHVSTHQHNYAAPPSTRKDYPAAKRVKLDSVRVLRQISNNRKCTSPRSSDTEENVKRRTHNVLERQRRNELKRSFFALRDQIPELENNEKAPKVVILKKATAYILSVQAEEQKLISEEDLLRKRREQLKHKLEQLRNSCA
yeast ΔImpα ΔIBB, sequence (Q02821 1-68, stated change not applied): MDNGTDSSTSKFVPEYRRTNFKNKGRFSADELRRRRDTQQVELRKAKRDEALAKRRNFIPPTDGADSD

For yeast ΔImpα ΔIBB (from UniProt Q02821), the Kd is 6 nM.
